The values that follow come from the supplement of paper PMC9112550, “Optimization of the antimicrobial peptide Bac7 by deep mutational scanning” (BMC Biology, 2022).

The series has as its system Escherichia coli TOP10. As to the kind of experiment: shrunken log2 fold change of peptide-encoding DNA abundance (4.5 h post-induction vs induction); higher = less antimicrobial activity (less host growth inhibition). Particulars: time post-induction: 4.5 h; library: site-saturation at positions 5, 18, 19, 20.
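Further: peptides expressed intracellularly from a pBAD plasmid library in pooled LB shake-flask culture, induced with 0.3% L-arabinose, DNA abundance read by NGS, three biological replicates, DESeq2 with apeglm shrinkage.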

On to RRIRHRPPRLPRPRPRPIIGPRP, for which the “shrunken log2 fold change” value is -0.00804.

Regarding RRIRTRPPRLPRPRPRPQINPRP, the “shrunken log2 fold change” value was -0.348.

As for RRIRHRPPRLPRPRPRPNCHPRP, the “shrunken log2 fold change” value was -0.444.

Regarding RRIRYRPPRLPRPRPRPQRAPRP, the “shrunken log2 fold change” value was -0.374.

As to RRIRCRPPRLPRPRPRPCSMPRP, the “shrunken log2 fold change” value is -0.0191.

For the sequence RRIRRRPPRLPRPRPRPYEKPRP, the “shrunken log2 fold change” value was 0.0137.

As to RRIRVRPPRLPRPRPRPWDEPRP, the “shrunken log2 fold change” value was -0.334.

In the case of RRIRCRPPRLPRPRPRPVGVPRP, the “shrunken log2 fold change” value is 0.299.

For the sequence RRIRYRPPRLPRPRPRPPVQPRP, the “shrunken log2 fold change” value is -0.0548.

Take RRIRTRPPRLPRPRPRPKCNPRP: the “shrunken log2 fold change” value is -0.221.

In the case of RRIRPRPPRLPRPRPRPMHWPRP, the “shrunken log2 fold change” value came to 0.335.

RRIRTRPPRLPRPRPRPVGSPRP: the “shrunken log2 fold change” value is -0.243.

On to RRIRTRPPRLPRPRPRPTRVPRP, for which the “shrunken log2 fold change” value was found to be 0.214.

With RRIRGRPPRLPRPRPRPGSLPRP, the “shrunken log2 fold change” value stood at 0.421.

Take RRIRRRPPRLPRPRPRPCACPRP: the “shrunken log2 fold change” value was -0.0784.

Consider RRIRPRPPRLPRPRPRPHSPPRP, for which the “shrunken log2 fold change” value is -0.0589.

Regarding RRIRGRPPRLPRPRPRPRHLPRP, the “shrunken log2 fold change” value was 0.221.

For RRIRGRPPRLPRPRPRPYEAPRP, the “shrunken log2 fold change” value came to 0.045.

As to RRIRPRPPRLPRPRPRPTAKPRP, the “shrunken log2 fold change” value worked out at 0.152.

As for RRIRFRPPRLPRPRPRPHNFPRP, the “shrunken log2 fold change” value was -0.399.

Consider RRIRRRPPRLPRPRPRPTHKPRP, for which the “shrunken log2 fold change” value amounted to 0.783.

As to RRIRNRPPRLPRPRPRPVSQPRP, the “shrunken log2 fold change” value was -0.0152.

Take RRIRVRPPRLPRPRPRPSVWPRP: the “shrunken log2 fold change” value was 0.102.

Take RRIRVRPPRLPRPRPRPISCPRP: the “shrunken log2 fold change” value is 0.0771.

For RRIRVRPPRLPRPRPRPFGSPRP, the “shrunken log2 fold change” value is -0.137.

On to RRIRYRPPRLPRPRPRPRELPRP, for which the “shrunken log2 fold change” value was -0.0942.

In the case of RRIRIRPPRLPRPRPRPQLHPRP, the “shrunken log2 fold change” value was -0.252.

With RRIRPRPPRLPRPRPRPHGDPRP, the “shrunken log2 fold change” value is -0.0431.

As to RRIRDRPPRLPRPRPRPSIFPRP, the “shrunken log2 fold change” value is -0.049.

As for RRIRTRPPRLPRPRPRPMTEPRP, the “shrunken log2 fold change” value was -0.0359.

As to RRIRMRPPRLPRPRPRPIKIPRP, the “shrunken log2 fold change” value was -0.0554.

Turning to RRIRYRPPRLPRPRPRPYTHPRP, the “shrunken log2 fold change” value is -0.508.

For the sequence RRIRERPPRLPRPRPRPVPVPRP, the “shrunken log2 fold change” value stood at 0.0913.

With RRIRKRPPRLPRPRPRPYSDPRP, the “shrunken log2 fold change” value is 0.0075.

Take RRIRYRPPRLPRPRPRPPHPPRP: the “shrunken log2 fold change” value was -0.187.

Turning to RRIRPRPPRLPRPRPRPDKHPRP, the “shrunken log2 fold change” value was -0.376.

In the case of RRIRERPPRLPRPRPRPLIEPRP, the “shrunken log2 fold change” value was -0.287.

For RRIRERPPRLPRPRPRPEGSPRP, the “shrunken log2 fold change” value was 0.0172.

For the sequence RRIRWRPPRLPRPRPRPCKHPRP, the “shrunken log2 fold change” value was -0.245.

For the sequence RRIRHRPPRLPRPRPRPFATPRP, the “shrunken log2 fold change” value came to 0.106.

As for RRIRQRPPRLPRPRPRPEHHPRP, the “shrunken log2 fold change” value was -0.136.

Take RRIRYRPPRLPRPRPRPIHSPRP: the “shrunken log2 fold change” value is -0.0447.

Consider RRIRWRPPRLPRPRPRPLKKPRP, for which the “shrunken log2 fold change” value came to 0.0518.

Take RRIRSRPPRLPRPRPRPSNNPRP: the “shrunken log2 fold change” value was -0.66.

On to RRIRLRPPRLPRPRPRPTMWPRP, for which the “shrunken log2 fold change” value was 0.145.

With RRIRSRPPRLPRPRPRPVPSPRP, the “shrunken log2 fold change” value was 0.391.

Turning to RRIRYRPPRLPRPRPRPIQFPRP, the “shrunken log2 fold change” value was -0.00822.

With RRIRNRPPRLPRPRPRPHDQPRP, the “shrunken log2 fold change” value is 0.0402.

As to RRIRYRPPRLPRPRPRPTGTPRP, the “shrunken log2 fold change” value was -0.172.

Consider RRIRWRPPRLPRPRPRPEKNPRP, for which the “shrunken log2 fold change” value came to 0.686.

On to RRIRPRPPRLPRPRPRPLGKPRP, for which the “shrunken log2 fold change” value was -0.361.

RRIRQRPPRLPRPRPRPDCWPRP: the “shrunken log2 fold change” value is -0.0539.

On to RRIRLRPPRLPRPRPRPMKTPRP, for which the “shrunken log2 fold change” value is -0.034.

As for RRIRFRPPRLPRPRPRPYPVPRP, the “shrunken log2 fold change” value is -0.115.

Regarding RRIRARPPRLPRPRPRPKSLPRP, the “shrunken log2 fold change” value is -0.109.

RRIRMRPPRLPRPRPRPWRFPRP: the “shrunken log2 fold change” value stood at 0.0528.

RRIRARPPRLPRPRPRPGDKPRP: the “shrunken log2 fold change” value turned out to be 0.173.

On to RRIRYRPPRLPRPRPRPREHPRP, for which the “shrunken log2 fold change” value is -0.00116.

With RRIRDRPPRLPRPRPRPGNEPRP, the “shrunken log2 fold change” value was -0.159.

On to RRIRVRPPRLPRPRPRPFAPPRP, for which the “shrunken log2 fold change” value was 0.0601.

For the sequence RRIRLRPPRLPRPRPRPFPCPRP, the “shrunken log2 fold change” value was 0.0233.

Take RRIRDRPPRLPRPRPRPSATPRP: the “shrunken log2 fold change” value amounted to 0.515.

For RRIRIRPPRLPRPRPRPYFGPRP, the “shrunken log2 fold change” value is -0.0455.

RRIRLRPPRLPRPRPRPFSVPRP: the “shrunken log2 fold change” value was -0.323.

RRIRWRPPRLPRPRPRPDGSPRP: the “shrunken log2 fold change” value is -0.0311.

Consider RRIRPRPPRLPRPRPRPGCHPRP, for which the “shrunken log2 fold change” value is 0.332.

RRIRQRPPRLPRPRPRPNYFPRP: the “shrunken log2 fold change” value is -0.149.

In the case of RRIRVRPPRLPRPRPRPQMFPRP, the “shrunken log2 fold change” value is -0.0716.

Take RRIRHRPPRLPRPRPRPPKAPRP: the “shrunken log2 fold change” value amounted to 0.0427.

For the sequence RRIRCRPPRLPRPRPRPGDSPRP, the “shrunken log2 fold change” value was -0.0113.

In the case of RRIRIRPPRLPRPRPRPNGLPRP, the “shrunken log2 fold change” value is 0.0383.

RRIRDRPPRLPRPRPRPCKAPRP: the “shrunken log2 fold change” value was -0.0139.

For RRIRMRPPRLPRPRPRPANRPRP, the “shrunken log2 fold change” value was determined as 0.21.

Turning to RRIRDRPPRLPRPRPRPREDPRP, the “shrunken log2 fold change” value was 0.293.

For the sequence RRIRRRPPRLPRPRPRPFSTPRP, the “shrunken log2 fold change” value was -0.0277.

RRIRMRPPRLPRPRPRPVRYPRP: the “shrunken log2 fold change” value was determined as 0.64.

Consider RRIRWRPPRLPRPRPRPATKPRP, for which the “shrunken log2 fold change” value is 0.273.

Regarding RRIRMRPPRLPRPRPRPMRIPRP, the “shrunken log2 fold change” value amounted to 0.355.

Consider RRIRQRPPRLPRPRPRPVELPRP, for which the “shrunken log2 fold change” value came to 4.07e-05.

On to RRIRERPPRLPRPRPRPDDPPRP, for which the “shrunken log2 fold change” value was -0.157.

On to RRIRTRPPRLPRPRPRPHLSPRP, for which the “shrunken log2 fold change” value was -0.0793.

As to RRIRNRPPRLPRPRPRPYLEPRP, the “shrunken log2 fold change” value was -0.00618.

For RRIRPRPPRLPRPRPRPRVSPRP, the “shrunken log2 fold change” value was 0.00758.

RRIRGRPPRLPRPRPRPKLYPRP: the “shrunken log2 fold change” value came to 0.354.

Turning to RRIRKRPPRLPRPRPRPSATPRP, the “shrunken log2 fold change” value amounted to 0.368.

Turning to RRIRPRPPRLPRPRPRPEPFPRP, the “shrunken log2 fold change” value amounted to 0.454.

Regarding RRIRGRPPRLPRPRPRPAACPRP, the “shrunken log2 fold change” value stood at 1.15.

In the case of RRIRVRPPRLPRPRPRPWDNPRP, the “shrunken log2 fold change” value was 0.0145.

Consider RRIRSRPPRLPRPRPRPDSAPRP, for which the “shrunken log2 fold change” value was found to be 0.0412.

Regarding RRIRCRPPRLPRPRPRPLAWPRP, the “shrunken log2 fold change” value was -0.0538.

Regarding RRIRERPPRLPRPRPRPKPLPRP, the “shrunken log2 fold change” value is 0.104.
